Literature values, collected in PMC6258485.

Target: CD55 (Homo sapiens) (UniProt P08174)
Sequence of UniProt P08174 (P08174 35-353): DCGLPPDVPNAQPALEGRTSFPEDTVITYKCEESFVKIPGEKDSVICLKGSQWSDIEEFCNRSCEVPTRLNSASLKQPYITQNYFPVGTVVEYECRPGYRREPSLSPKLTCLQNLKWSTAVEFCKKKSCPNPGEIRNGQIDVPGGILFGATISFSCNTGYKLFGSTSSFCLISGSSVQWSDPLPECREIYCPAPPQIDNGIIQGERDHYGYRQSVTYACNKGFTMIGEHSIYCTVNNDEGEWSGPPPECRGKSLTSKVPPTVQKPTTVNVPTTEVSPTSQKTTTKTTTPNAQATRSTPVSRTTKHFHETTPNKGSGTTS

Kd: 86 µM
Substance: CD97 (from UniProt P48960)
